Consider 125 sequences from the supplement of paper PMC9112550, “Optimization of the antimicrobial peptide Bac7 by deep mutational scanning” (BMC Biology, 2022).
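Further: peptides expressed intracellularly from a pBAD plasmid library in pooled LB shake-flask culture, induced with 0.3% L-arabinose, DNA abundance read by NGS, three biological replicates, DESeq2 with apeglm shrinkage.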

This data set concerns Escherichia coli TOP10. Nature of the data set: shrunken log2 fold change of peptide-encoding DNA abundance (4.5 h post-induction vs induction); higher = less antimicrobial activity (less host growth inhibition). The settings on record: time post-induction: 4.5 h; library: site-saturation at positions 5, 18, 19, 20.
Regarding RRIRHRPPRLPRPRPRPVKQPRP, the “shrunken log2 fold change” value was -0.0982.

In the case of RRIRVRPPRLPRPRPRPVAVPRP, the “shrunken log2 fold change” value is -0.05.

Take RRIRDRPPRLPRPRPRPWNMPRP: the “shrunken log2 fold change” value was -0.508.

In the case of RRIRGRPPRLPRPRPRPVDPPRP, the “shrunken log2 fold change” value was 0.107.

Regarding RRIRVRPPRLPRPRPRPTHTPRP, the “shrunken log2 fold change” value was determined as 0.0927.

For the sequence RRIRERPPRLPRPRPRPLQDPRP, the “shrunken log2 fold change” value is -0.133.

As to RRIRLRPPRLPRPRPRPGIIPRP, the “shrunken log2 fold change” value is -0.116.

RRIRTRPPRLPRPRPRPKKLPRP: the “shrunken log2 fold change” value was -0.298.

Take RRIRTRPPRLPRPRPRPHPMPRP: the “shrunken log2 fold change” value is -0.167.

Turning to RRIRDRPPRLPRPRPRPPMVPRP, the “shrunken log2 fold change” value came to 0.207.

On to RRIRDRPPRLPRPRPRPSSVPRP, for which the “shrunken log2 fold change” value was -0.0994.

With RRIRYRPPRLPRPRPRPSGKPRP, the “shrunken log2 fold change” value is -0.447.

On to RRIRARPPRLPRPRPRPYICPRP, for which the “shrunken log2 fold change” value was -0.326.

Regarding RRIRARPPRLPRPRPRPHRNPRP, the “shrunken log2 fold change” value was determined as 0.192.

For RRIRVRPPRLPRPRPRPDYVPRP, the “shrunken log2 fold change” value is -0.406.

With RRIRHRPPRLPRPRPRPTRLPRP, the “shrunken log2 fold change” value is 0.189.

As to RRIRARPPRLPRPRPRPCMAPRP, the “shrunken log2 fold change” value was 0.104.

Take RRIRCRPPRLPRPRPRPTYWPRP: the “shrunken log2 fold change” value was -0.113.

Take RRIRRRPPRLPRPRPRPFDAPRP: the “shrunken log2 fold change” value was 0.44.

As to RRIRIRPPRLPRPRPRPLAWPRP, the “shrunken log2 fold change” value worked out at 0.0118.

As to RRIRFRPPRLPRPRPRPCLVPRP, the “shrunken log2 fold change” value is -0.208.

With RRIRFRPPRLPRPRPRPATEPRP, the “shrunken log2 fold change” value amounted to 0.0616.

RRIRPRPPRLPRPRPRPKHIPRP: the “shrunken log2 fold change” value is -0.301.

For RRIRHRPPRLPRPRPRPRHYPRP, the “shrunken log2 fold change” value is -0.285.

With RRIRSRPPRLPRPRPRPMLSPRP, the “shrunken log2 fold change” value amounted to 0.149.

Regarding RRIRQRPPRLPRPRPRPELSPRP, the “shrunken log2 fold change” value was -0.00478.

Take RRIRQRPPRLPRPRPRPKGVPRP: the “shrunken log2 fold change” value was -0.00208.

As to RRIRRRPPRLPRPRPRPPDAPRP, the “shrunken log2 fold change” value was 0.768.

As to RRIRHRPPRLPRPRPRPTSQPRP, the “shrunken log2 fold change” value was -0.00232.

As to RRIRKRPPRLPRPRPRPNGPPRP, the “shrunken log2 fold change” value is -0.00695.

Consider RRIRMRPPRLPRPRPRPVPNPRP, for which the “shrunken log2 fold change” value is 0.12.

For RRIRMRPPRLPRPRPRPEEYPRP, the “shrunken log2 fold change” value was 0.0514.

In the case of RRIRLRPPRLPRPRPRPMSIPRP, the “shrunken log2 fold change” value is -0.159.

With RRIRMRPPRLPRPRPRPMWSPRP, the “shrunken log2 fold change” value was -0.027.

Consider RRIRCRPPRLPRPRPRPFNIPRP, for which the “shrunken log2 fold change” value was -0.436.

For the sequence RRIRNRPPRLPRPRPRPKWGPRP, the “shrunken log2 fold change” value is 0.147.

As for RRIRARPPRLPRPRPRPVYLPRP, the “shrunken log2 fold change” value is -0.622.

RRIRERPPRLPRPRPRPKYSPRP: the “shrunken log2 fold change” value is -0.866.

As to RRIRNRPPRLPRPRPRPENSPRP, the “shrunken log2 fold change” value is -0.00522.

On to RRIRYRPPRLPRPRPRPFNRPRP, for which the “shrunken log2 fold change” value is -0.0175.

RRIRTRPPRLPRPRPRPCWDPRP: the “shrunken log2 fold change” value is -0.192.

Regarding RRIRMRPPRLPRPRPRPSIIPRP, the “shrunken log2 fold change” value came out at 0.0973.

With RRIRLRPPRLPRPRPRPKDYPRP, the “shrunken log2 fold change” value is -0.0534.

As to RRIRPRPPRLPRPRPRPWKQPRP, the “shrunken log2 fold change” value amounted to 0.0524.

For the sequence RRIRLRPPRLPRPRPRPSIGPRP, the “shrunken log2 fold change” value was -0.378.

Turning to RRIRWRPPRLPRPRPRPQDMPRP, the “shrunken log2 fold change” value was -0.199.

Consider RRIRCRPPRLPRPRPRPPLTPRP, for which the “shrunken log2 fold change” value is 0.578.

Take RRIRFRPPRLPRPRPRPWEAPRP: the “shrunken log2 fold change” value is -0.0969.

As to RRIRTRPPRLPRPRPRPAKGPRP, the “shrunken log2 fold change” value came out at 0.0671.

Take RRIRYRPPRLPRPRPRPYFHPRP: the “shrunken log2 fold change” value was -1.4.

Consider RRIRPRPPRLPRPRPRPGPLPRP, for which the “shrunken log2 fold change” value was 0.193.

On to RRIRERPPRLPRPRPRPAKYPRP, for which the “shrunken log2 fold change” value is -0.274.

RRIRMRPPRLPRPRPRPKTCPRP: the “shrunken log2 fold change” value amounted to 0.12.

With RRIRGRPPRLPRPRPRPGFHPRP, the “shrunken log2 fold change” value came to 0.296.

In the case of RRIRFRPPRLPRPRPRPTCLPRP, the “shrunken log2 fold change” value is -0.249.

In the case of RRIRYRPPRLPRPRPRPFQCPRP, the “shrunken log2 fold change” value is -0.157.

For RRIRNRPPRLPRPRPRPHFGPRP, the “shrunken log2 fold change” value was -0.104.

On to RRIRDRPPRLPRPRPRPIPHPRP, for which the “shrunken log2 fold change” value is -0.051.

As to RRIRIRPPRLPRPRPRPQQHPRP, the “shrunken log2 fold change” value is -0.551.

Consider RRIRWRPPRLPRPRPRPMQDPRP, for which the “shrunken log2 fold change” value is -0.13.

Regarding RRIRFRPPRLPRPRPRPDPNPRP, the “shrunken log2 fold change” value was -0.072.

Take RRIRDRPPRLPRPRPRPKQLPRP: the “shrunken log2 fold change” value was 0.217.

Take RRIRERPPRLPRPRPRPSWGPRP: the “shrunken log2 fold change” value is -0.102.

Regarding RRIRKRPPRLPRPRPRPWVRPRP, the “shrunken log2 fold change” value is -0.0489.

Take RRIRPRPPRLPRPRPRPMHHPRP: the “shrunken log2 fold change” value is -0.194.

Regarding RRIRRRPPRLPRPRPRPIYGPRP, the “shrunken log2 fold change” value was -0.69.

For the sequence RRIRWRPPRLPRPRPRPVDVPRP, the “shrunken log2 fold change” value is -0.0135.

Consider RRIRPRPPRLPRPRPRPSIHPRP, for which the “shrunken log2 fold change” value was -0.974.

As for RRIRARPPRLPRPRPRPIFFPRP, the “shrunken log2 fold change” value was 0.388.

With RRIRDRPPRLPRPRPRPHINPRP, the “shrunken log2 fold change” value was -0.683.

With RRIRNRPPRLPRPRPRPKGTPRP, the “shrunken log2 fold change” value came to 0.118.

In the case of RRIRDRPPRLPRPRPRPVNWPRP, the “shrunken log2 fold change” value is 0.188.

On to RRIRWRPPRLPRPRPRPHAHPRP, for which the “shrunken log2 fold change” value amounted to 0.0336.

As for RRIRGRPPRLPRPRPRPNEAPRP, the “shrunken log2 fold change” value amounted to 1.22.

RRIRMRPPRLPRPRPRPPGSPRP: the “shrunken log2 fold change” value was 0.904.

Turning to RRIRRRPPRLPRPRPRPKWPPRP, the “shrunken log2 fold change” value came to 0.141.

With RRIRARPPRLPRPRPRPSNSPRP, the “shrunken log2 fold change” value was -0.156.

As to RRIRNRPPRLPRPRPRPTNPPRP, the “shrunken log2 fold change” value is -0.216.

RRIRSRPPRLPRPRPRPLTVPRP: the “shrunken log2 fold change” value is -0.216.

On to RRIRTRPPRLPRPRPRPLVTPRP, for which the “shrunken log2 fold change” value is -0.227.

RRIRDRPPRLPRPRPRPYNYPRP: the “shrunken log2 fold change” value was -0.27.

Take RRIRKRPPRLPRPRPRPIPRPRP: the “shrunken log2 fold change” value was determined as 1.3.

Consider RRIRKRPPRLPRPRPRPESTPRP, for which the “shrunken log2 fold change” value was determined as 1.38.

Consider RRIRVRPPRLPRPRPRPPMRPRP, for which the “shrunken log2 fold change” value stood at 1.24.

As for RRIRFRPPRLPRPRPRPCQCPRP, the “shrunken log2 fold change” value was -0.035.

Consider RRIRERPPRLPRPRPRPPLEPRP, for which the “shrunken log2 fold change” value worked out at 0.161.

On to RRIRERPPRLPRPRPRPNTAPRP, for which the “shrunken log2 fold change” value is 0.0197.

Take RRIRLRPPRLPRPRPRPQHCPRP: the “shrunken log2 fold change” value was -0.0642.

For RRIRYRPPRLPRPRPRPLGIPRP, the “shrunken log2 fold change” value was -0.576.

Regarding RRIRSRPPRLPRPRPRPPDWPRP, the “shrunken log2 fold change” value was 0.661.

In the case of RRIRMRPPRLPRPRPRPKSMPRP, the “shrunken log2 fold change” value came out at 0.0732.

In the case of RRIRFRPPRLPRPRPRPIRMPRP, the “shrunken log2 fold change” value is -0.191.

With RRIRGRPPRLPRPRPRPEGYPRP, the “shrunken log2 fold change” value is 0.118.

For the sequence RRIRHRPPRLPRPRPRPWCHPRP, the “shrunken log2 fold change” value was -0.00107.

Turning to RRIRQRPPRLPRPRPRPSRTPRP, the “shrunken log2 fold change” value was -0.29.

On to RRIRYRPPRLPRPRPRPANRPRP, for which the “shrunken log2 fold change” value amounted to 0.0126.

In the case of RRIRCRPPRLPRPRPRPPRWPRP, the “shrunken log2 fold change” value worked out at 1.16.

Consider RRIRHRPPRLPRPRPRPFAGPRP, for which the “shrunken log2 fold change” value is -0.205.

Consider RRIRNRPPRLPRPRPRPLSRPRP, for which the “shrunken log2 fold change” value was -0.124.

For RRIRQRPPRLPRPRPRPNGPPRP, the “shrunken log2 fold change” value is -0.011.

On to RRIRNRPPRLPRPRPRPALQPRP, for which the “shrunken log2 fold change” value was 0.234.

On to RRIRDRPPRLPRPRPRPIKRPRP, for which the “shrunken log2 fold change” value stood at 0.000716.

As to RRIRVRPPRLPRPRPRPHYPPRP, the “shrunken log2 fold change” value is -0.675.

For RRIRKRPPRLPRPRPRPNHLPRP, the “shrunken log2 fold change” value was -0.0502.

Turning to RRIRCRPPRLPRPRPRPVIVPRP, the “shrunken log2 fold change” value was -0.208.

Regarding RRIRGRPPRLPRPRPRPMTKPRP, the “shrunken log2 fold change” value worked out at 0.524.

As to RRIRFRPPRLPRPRPRPMPPPRP, the “shrunken log2 fold change” value was 0.55.

Regarding RRIRMRPPRLPRPRPRPATTPRP, the “shrunken log2 fold change” value is 0.538.

For RRIRNRPPRLPRPRPRPMTCPRP, the “shrunken log2 fold change” value was -0.0075.

With RRIRCRPPRLPRPRPRPDHDPRP, the “shrunken log2 fold change” value was -0.265.

As for RRIRGRPPRLPRPRPRPPETPRP, the “shrunken log2 fold change” value is 1.24.

On to RRIRLRPPRLPRPRPRPKIDPRP, for which the “shrunken log2 fold change” value is -0.042.

Consider RRIRNRPPRLPRPRPRPQESPRP, for which the “shrunken log2 fold change” value is -0.342.

With RRIRGRPPRLPRPRPRPKMPPRP, the “shrunken log2 fold change” value stood at 0.434.

Consider RRIRMRPPRLPRPRPRPHITPRP, for which the “shrunken log2 fold change” value was -0.374.

For RRIRYRPPRLPRPRPRPAFPPRP, the “shrunken log2 fold change” value is -0.139.

In the case of RRIRERPPRLPRPRPRPRYIPRP, the “shrunken log2 fold change” value was -0.208.

As for RRIRYRPPRLPRPRPRPKRRPRP, the “shrunken log2 fold change” value is 0.0144.

As to RRIRFRPPRLPRPRPRPACCPRP, the “shrunken log2 fold change” value turned out to be 0.229.

RRIRPRPPRLPRPRPRPSISPRP: the “shrunken log2 fold change” value was -0.37.

Regarding RRIRVRPPRLPRPRPRPIFNPRP, the “shrunken log2 fold change” value was -0.274.

With RRIRPRPPRLPRPRPRPCAVPRP, the “shrunken log2 fold change” value was -0.418.

Turning to RRIRERPPRLPRPRPRPLSGPRP, the “shrunken log2 fold change” value was -0.135.

Take RRIRHRPPRLPRPRPRPPNLPRP: the “shrunken log2 fold change” value was found to be 0.189.

As for RRIRMRPPRLPRPRPRPPSTPRP, the “shrunken log2 fold change” value turned out to be 0.97.
